Series [1] has as its system ALC1-catalyzed remodeling of WT/WT nucleosomes. In words: Ensemble FRET nucleosome remodeling, WT/WT nucleosomes. It is filed as biochemical, Homo sapiens ALC1; Xenopus laevis histones. As to conditions: WT/WT nucleosomes 10 nM, various remodeler concentrations, Michaelis-Menten. The text has this:
(§1) cDNAs for ALC1 and PARP1 were of Homo sapiens origin. Histone proteins (recombinantly expressed in E. coli) were of Xenopus laevis origin. Cell lines as well as growth conditions are described in the Method Details.
(§2) Oligonucleotides used in this study were ordered from IDT (see Table S3). The ALC1^fl (16-879) construct contains the human ALC1 sequence and a 6xHis-tag, as previously published ([Lehmann et al., 2017]). All point mutations were generated by PCR-based site-directed mutagenesis. The plasmid for human PARP1 (1-1014) with an N-terminal 6xHis-tag was a kind gift from John M. Pascal ([Langelier et al., 2017]).
(§3) The DNA constructs used in the nucleosome assembly for single-molecule and ensemble remodeling studies comprised the Widom 601 nucleosome positioning sequence ([Lowary and Widom, 1998]) as well as either 3 bp or 12 bp of linker DNA on one side and 78 bp on the other side (for the single-molecule remodeling construct) or 63 bp of linker DNA on one side and no linker DNA on the other side (for the ensemble remodeling construct). […] The DNA constructs for the assembly of nucleosomes used in fluorescence anisotropy experiments and ATPase assays comprised the Widom 601 positioning sequence without additional linker DNA (for the fluorescence anisotropy construct) or 63 bp of linker DNA on one side and no linker DNA on the other side (for the ATPase assay construct). […]
Nucleosome ensemble remodeling kinetics were measured by monitoring the Cy5 (under 620 nm and 520 nm excitation) and Cy3 (under 520 nm excitation) fluorescence emission signals of a solution of FRET-labeled nucleosomes using a Spark (Tecan) or CLARIOstar (BMG Labtech) multimode microplate reader. […] Reaction kinetics were analyzed assuming a standard Michaelis-Menten mechanism.
(§4) For fluorescence anisotropy binding experiments, the reported values represent the mean ± SEM from 3 independent experiments. […] For ensemble nucleosome remodeling time courses, each experimental condition was recorded in 3 independent experiments, and representative remodeling time courses are shown. […]

Series [2] has as its system ALC1-catalyzed remodeling of APM/APM nucleosomes. Put plainly: Ensemble FRET nucleosome remodeling, APM/APM versus WT/WT nucleosomes. The class given is biochemical, Homo sapiens ALC1; Xenopus laevis histones. The note with it: 20 μM remodeler, 10 nM nucleosomes, 1.5 mM ATP; n = 3 independent experiments.
Source text: as §1, §2, §3

In series [3] the test system is individual WT/WT nucleosomes with 3 bp of linker DNA. Put plainly: smFRET remodeling, pause duration. The class given is biochemical, Xenopus laevis histones. The text has this:
The DNA constructs used in the nucleosome assembly for single-molecule and ensemble remodeling studies comprised the Widom 601 nucleosome positioning sequence ([Lowary and Widom, 1998]) as well as either 3 bp or 12 bp of linker DNA on one side and 78 bp on the other side (for the single-molecule remodeling construct) or 63 bp of linker DNA on one side and no linker DNA on the other side (for the ensemble remodeling construct). All constructs were 5’-labeled with Cy5 on the short linker end. The constructs for single-molecule experiments additionally featured a biotin on the long linker end. […] The DNA constructs for the assembly of nucleosomes used in fluorescence anisotropy experiments and ATPase assays comprised the Widom 601 positioning sequence without additional linker DNA (for the fluorescence anisotropy construct) or 63 bp of linker DNA on one side and no linker DNA on the other side (for the ATPase assay construct). […]
Using the DNA constructs for single-molecule FRET described above, we first generated oriented hexasomes with H2A-Cy3 on the short linker side using a salt dialysis method as described previously ([Dyer et al., 2004]; [Levendosky et al., 2016]; [Sabantsev et al., 2019]). […] Data were analyzed using custom scripts for the Fiji distribution of ImageJ ([Schindelin et al., 2012]; [Schneider et al., 2012]), IDL, and MATLAB ([Sabantsev et al., 2019]). […]

In series [4] the test system is ALC1 ATPase with WT/WT nucleosomes. In words: Nucleosome-stimulated ATPase activity. It is filed as biochemical, Homo sapiens ALC1; Xenopus laevis histones. The method, then: (§5) ATPase activity was measured using a coupled assay that measures ADP production as described previously, ([Willhoft et al., 2016]). Final concentrations of 0.45 mM NADH, 1.0 mM phosphoenolpyruvate, 54 U/ml pyruvate kinase (Sigma), and 78 U/ml lactic dehydrogenase (Sigma) were used. For measurements of nucleosome-stimulated ATPase activity, reactions contained 20 μM ALC1,2 μM WT/WT nucleosomes, and 1 mM ATP in a volume of 30 μl. Fluorescence was monitored (excitation wavelength: 340 nm; emission wavelength: 430 nm) at 37°C using a CLARIOstar microplate reader (BMG Labtech) and black low-volume 384-well microplates (Corning). For measurements of DNA-stimulated ATPase activity, the absorbance was monitored at 340 nm for reactions containing a final of 1 μM ALC1 and either 20 μM or 50 μM 145 bp nucleosomal double-stranded (ds) DNA in 100 μl. Reaction rates were determined using mean linear slopes. For measurements of nucleosome-stimulated ATPase activity, we estimated Vmax for both ALC1^fl R860W and ALC1^fl R611A/S612A/R860W using the Michaelis-Menten equation and the Km values that we obtained from nucleosome sliding kinetics in Figure 3B.
For fluorescence anisotropy binding experiments, the reported values represent the mean ± SEM from 3 independent experiments. For ATPase activity measurements, the reported values represent the mean ± standard deviation from 3 independent experiments. For ensemble nucleosome remodeling time courses, each experimental condition was recorded in 3 independent experiments, and representative remodeling time courses are shown. Relative remodeling rates derived from these curves represent the mean ± standard deviation from 3 independent experiments. For smFRET experiments, values are reported as mean ± SEM from several experiments as specified in the corresponding figure legends. For association kinetics from live-cell imaging, error bars represent SEM from N ≥ 131 traces from 3 independent experiments.

Series [5] has as its system ALC1 ATPase with 145 bp dsDNA. Put plainly: DNA-stimulated ATPase activity. As to conditions: 1 μM ALC1, 20 μM or 50 μM 145 bp dsDNA, 1 mM ATP; N = 3 independent experiments. The class given is biochemical, Homo sapiens ALC1. How it is done: as §5, with “For measurements of nucleosome-stimulated ATPase activity, we estimated Vmax for both ALC1^fl R860W and ALC1^fl R611A/S612A/R860W using the Michaelis-Menten equation and the Km values that we obtained from nucleosome sliding kinetics in Figure 3B.” left out
as §4

B1: ALC1^fl R611A/S612A/R860W: ALC1^RLS Arg anchor (R611) and adjacent residue (S612) mutated to alanines (protein)
chain: FLLRLHTEGRAEAARVQEQDLRQWGLTGIHLRSYQLEGVNWLAQRFHCQNGCILGDEMGLGKTCQTIALFIYLAGRLNDEGPFLILCPLSVLSNWKEEMQRFAPGLSCVTYAGDKEERACLQQDLKQESRFHVLLTTYEICLKDASFLKSFPWSVLVVDEAHRLKNQSSLLHKTLSEFSVVFSLLLTGTPIQNSLQELYSLLSFVEPDLFSKEEVGDFIQRYQDIEKESESASELHKLLQPFLLRRVKAEVATELPKKTEVVIYHGMSALQKKYYKAILMKDLDAFENETAKKVKLQNILSQLRKCVDHPYLFDGVEPEPFEVGDHLTEASGKLHLLDKLLAFLYSGGHRVLLFSQMTQMLDILQDYMDYRGYSYERVDGSVRGEERHLAIKNFGQQPIFVFLLSTRAGGVGMNLTAADTVIFVDSDFNPQNDLQAAARAHRIGQNKSVKVIRLIGRDTVEEIVYRKAASKLQLTNMIIEGGHFTLGAQKPAADADLQLSEILKFGLDKLLASEGSTMDEIDLESILGETKDGQWVSDALPAAEGGSRDQEEGKNHMYLFEGKDYSKEPSKEDRKSFEQLVNLQKTLLEKASQEGAALRNKGSVLIPGLVEGSTKRKRVLSPEELEDRQKKRQEAAAKRRRLIEEKKRQKEEAEHKKKMAWWESNNYQSFCLPSEESEPEDLENGEESSAELDYQDPDATSLKYVSGDVTHPQAGAEDALIVHCVDDSGHWGRGGLFTALEKRSAEPRKIYELAGKMKDLSLGGVLLFPVDDKESRNKGQDLLALIVAQHRDRSNVLSGIKMAALEEGLKKIFLAAKKKKASVHLPRIGHATKGFNWYGTERLIWKHLAARGIPTYIYYFPRSK
modifications: left off: His6, end not stated, state not stated
notes: ALC1^RLS Arg anchor (R611) and adjacent residue (S612) mutated to alanines
Take B1: in series [1], the “fold decrease of maximum rate for remodeling versus ALC1^fl R860W” value was ~ 6.4 fold and the “fold increase of Michaelis constant for remodeling versus ALC1^fl R860W” value is recorded as ~ 5.3 fold. In addition, the “fold decrease in remodeling rate, APM/APM versus WT/WT nucleosomes” value in series [2] is reported as ~ 3.2 fold. In addition, the “average binding time relative to average pause duration (pause fold shorter)” value in series [3] (remodeler concentration 20 μM) amounted to 2.8 fold. Also, in series [3] (remodeler concentration lowered 4-fold), the “increase in observed pause duration on lowering remodeler concentration by a factor of 4” value turned out to be 30%. In addition, the “fold reduction of ATPase rate versus ALC1^fl R860W” value in series [4] (20 μM ALC1, 2 μM WT/WT nucleosomes, 1 mM ATP, 37°C, n = 3 independent experiments) is listed as ~ 2.5 fold. In addition, the “fold reduction of ATPase rate versus ALC1^fl R860W, saturating conditions (Vmax)” value in series [4] (under saturating conditions, Vmax estimated with Michaelis-Menten equation and Km values from nucleosome sliding kinetics) is ~ 2 fold. Besides, in series [5], the “DNA-stimulated ATPase activity, ALC1^fl R860W versus ALC1^fl R611A/S612A/R860W” value is given as “essentially identical DNA-stimulated ATPase activity”.

The values are drawn from paper PMC7116876, “Mechanistic Insights into Regulation of the ALC1 Remodeler by the Nucleosome Acidic Patch” (Cell reports, 2020).
